These results are taken from the Immune Epitope Database (IEDB).

The target in one assay is HLA-B*57:01. The assay can be described thus: IEDB peptide-MHC binding, purified MHC/competitive/radioactivity; filed as Kd, often an IC50 or EC50 that approximates it; ≥ and ≤ were set here for values at or beyond the usual limits of such assays. The following applies: source organism: Dengue virus 3 Martinique/1243/1999.
A further assay has as its target HLA-B*53:01. The assay is described as above. The following applies: source organism: Dengue virus 3 Martinique/1243/1999.
A further assay addresses HLA-B*15:42. The assay can be described thus: IEDB peptide-MHC binding, purified MHC/competitive/fluorescence; filed as Kd, often an IC50 or EC50 that approximates it; ≥ and ≤ were set here for values at or beyond the usual limits of such assays. To be noted: source organism: human gammaherpesvirus 4.
A further assay deals with HLA-B*45:06. Described as above. To be noted: source organism: human gammaherpesvirus 4.
A further assay addresses HLA-B*83:01. Described as above. The following applies: source organism: human gammaherpesvirus 4.

pKd: −log10 of the molar value. Some results are limits rather than exact numbers.

For the sequence TALFSGVSW, the values for the pKd in the assay with HLA-B*57:01 and in the assay with HLA-B*53:01 were 9.23 and 7.30, respectively.

For RPRPRTPEW, the negative-log Kd (pKd) was not above 5.30 with HLA-B*15:42, not above 5.30 with HLA-B*45:06 and 6.37 in the assay with HLA-B*83:01.
